Key:
Assay in all cases: EMSA
[1] = target: UV-DDB (DDB1-DDB2 heterodimer) (UniProt Q16531+Q92466); settings: EMSA: 20 mM HEPES pH 7.5, 150 mM NaCl, 2 mM DTT (5 mM in AAG native PAGE), 5% glycerol, 0.5 mg/ml BSA, 8 nM DNA, room temperature 20-30 min, 5% native gel at …
AAG WT (MPG) = AAG WT (MPG) (UniProt P29372); settings: 60 nM AAG, 8 nM DNA, N20 of strand 1 = tetrahydrofuran abasic analogue (opposite T), EMSA: 20 mM HEPES pH 7.5, 150 mM NaCl, 2 mM DTT (5 mM in AAG native PAGE), 5% glycerol, 0.5 mg/ml BSA, room temperature 20-30 min, 5% native gel at …
[2] = target: AAG D80 EQ (catalytically dead) E125Q (UniProt P29372); settings: 60 nM AAG D80 EQ, 8 nM DNA, text says THF, legend says ϵdA37, N20 of strand 1 = 1,N6-ethenoadenine (opposite T), EMSA: 20 mM HEPES pH 7.5, 150 mM NaCl, 2 mM DTT (5 mM in AAG native PAGE), 5% glycerol, 0.5 mg/ml BSA, room temperature 20-30 min, 5% native gel at …

Chain of UniProt Q16531 (Q16531 whole entry, chain 1 of 2): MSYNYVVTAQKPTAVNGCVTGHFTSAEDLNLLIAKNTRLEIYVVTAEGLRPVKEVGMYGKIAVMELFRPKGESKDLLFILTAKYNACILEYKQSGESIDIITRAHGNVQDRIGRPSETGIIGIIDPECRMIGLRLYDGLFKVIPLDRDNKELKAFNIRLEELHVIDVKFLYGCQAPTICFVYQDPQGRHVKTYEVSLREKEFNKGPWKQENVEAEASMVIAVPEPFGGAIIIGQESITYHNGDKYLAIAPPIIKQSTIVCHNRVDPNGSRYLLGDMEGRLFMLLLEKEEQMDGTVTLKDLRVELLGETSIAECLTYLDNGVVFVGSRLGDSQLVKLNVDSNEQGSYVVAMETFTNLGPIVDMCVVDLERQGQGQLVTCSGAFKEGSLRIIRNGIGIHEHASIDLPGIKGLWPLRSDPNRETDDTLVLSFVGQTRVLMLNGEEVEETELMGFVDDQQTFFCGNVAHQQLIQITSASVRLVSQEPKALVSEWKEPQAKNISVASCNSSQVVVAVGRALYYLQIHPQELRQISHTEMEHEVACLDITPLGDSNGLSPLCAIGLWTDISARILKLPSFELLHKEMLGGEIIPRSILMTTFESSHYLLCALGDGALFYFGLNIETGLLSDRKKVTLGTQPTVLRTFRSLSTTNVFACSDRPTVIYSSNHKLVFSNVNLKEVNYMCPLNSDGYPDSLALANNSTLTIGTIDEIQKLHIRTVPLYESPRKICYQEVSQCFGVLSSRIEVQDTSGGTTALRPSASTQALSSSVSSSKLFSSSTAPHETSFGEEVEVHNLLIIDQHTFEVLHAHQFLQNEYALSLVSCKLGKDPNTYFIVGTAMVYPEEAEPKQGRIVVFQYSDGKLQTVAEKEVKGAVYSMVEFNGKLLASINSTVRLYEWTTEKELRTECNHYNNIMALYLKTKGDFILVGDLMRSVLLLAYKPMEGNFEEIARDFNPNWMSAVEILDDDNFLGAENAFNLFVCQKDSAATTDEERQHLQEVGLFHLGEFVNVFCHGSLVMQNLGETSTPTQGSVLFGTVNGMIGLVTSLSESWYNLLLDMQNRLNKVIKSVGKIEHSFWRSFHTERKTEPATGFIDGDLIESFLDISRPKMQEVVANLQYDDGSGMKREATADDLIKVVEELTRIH
Chain of UniProt Q16531 (Q92466 whole entry, chain 2 of 2): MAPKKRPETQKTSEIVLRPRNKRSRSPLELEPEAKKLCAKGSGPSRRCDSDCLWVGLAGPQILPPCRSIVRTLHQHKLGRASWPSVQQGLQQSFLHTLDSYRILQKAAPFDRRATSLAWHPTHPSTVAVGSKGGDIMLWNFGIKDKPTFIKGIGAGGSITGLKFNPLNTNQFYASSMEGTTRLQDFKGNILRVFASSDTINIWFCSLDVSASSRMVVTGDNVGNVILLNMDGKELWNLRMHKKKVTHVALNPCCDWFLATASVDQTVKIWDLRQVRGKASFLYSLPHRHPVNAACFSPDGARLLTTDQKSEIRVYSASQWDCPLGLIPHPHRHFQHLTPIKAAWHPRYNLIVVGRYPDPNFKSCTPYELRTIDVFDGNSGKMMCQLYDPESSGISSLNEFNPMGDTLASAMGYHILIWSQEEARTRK

CCGAGTCATTCCTGCAGCGNGTCCATGGGAGTCAAAT / ATTTGACTCCCATGGACTCGCTGCAGGAATGACTCGG [Hx37 (Hx:T)]
Kd ([1]; N20 of strand 1 = hypoxanthine (deoxyinosine, opposite T)): 8.6 nM

CCGAGTCATTCCTGCAGCGNGTCCATGGGAGTCAAAT / ATTTGACTCCCATGGACTCGCTGCAGGAATGACTCGG [THF37]
Kd ([1]; N20 of strand 1 = tetrahydrofuran abasic analogue (opposite T)): 1.8 nM | binding signal (AAG WT (MPG)): > 85 % DNA bound

CCGAGTCATTCCTGCAGCGNGTCCATGGGAGTCAAAT / ATTTGACTCCCATGGACTCGCTGCAGGAATGACTCGG [ϵdA37 (ϵA:T)]
Kd ([1]; N20 of strand 1 = 1,N6-ethenoadenine (opposite T)): 6 nM | binding signal [2]: > 85 % DNA bound

undamaged 37 bp duplex (UD)
Kd ([1]; no Mg2+, varies with preparation (32-42 nM)): 31.8 nM

Reference: paper PMC9825174
